Measured values reported in article PMC2120815.

Biological target: cytoplasmic dynein intermediate chain (Xenopus laevis (endogenous in egg extract))
Experiment: co-IP

cytoplasmic dynein heavy chain (natural protein)
interphase/metaphase ratio of the amount brought down: 1.08
